One block for each molecule: values may come before it.
How the values were obtained:
[1] = biological target: GDF15/GFRAL complex (Homo sapiens) (UniProt Q99988); conditions: cited from earlier work
[2] = biological target: RET^C634R extracellular domain dimer (human RET residues 1-635 with C634R, C86R and C216S) (human) (UniProt P07949); assay: SEC-MALS; Superdex 200 10/300 GL, 0.25 ml/min, RT, 20 mM Hepes pH 7.5, 100 mM NaCl, 1 mM CaCl2
[3] = biological target: Fc-GDF15/GFRAL complex (formed beforehand) (human) (UniProt Q99988); assay: BLI; Fc-GDF15 (15 uM) immobilised on anti-hIgG Fc capture biosensors, saturated with GFRAL (3 uM), then RET^C634R 0.3-42 uM; saturation signals fitted to a sigmoidal model
[4] = biological target: T1, WT RET extracellular domain (human RET residues 1-635) (human, UniProt P07949 29-635, glycosylated (near-native glycans)); assay: native gel or EMSA; Blue Native PAGE; Fc-GDF15 dimer 2 uM + GFRAL 4 uM for 15 min (with or without thrombin), then RET^WT monomer 4 uM or RET^C634R dimer 2 uM; RET + copurified GDNF/GFRα1 at 1:1; 30 min at RT; run at 100 V, 4 °C; also after 5 min heating at 50-85 °C for melting curves; conditions: both partners purified
T1 construct: signal peptide in the construct; human RET extracellular domain, residues 1-635; TEV site before the His8-Flag tags; also called RET^WT; RET^WT ECD; source: HEK293T, transient expression, secreted; purified (Ni-NTA, anti-Flag)
T1 sequence (P07949 29-635): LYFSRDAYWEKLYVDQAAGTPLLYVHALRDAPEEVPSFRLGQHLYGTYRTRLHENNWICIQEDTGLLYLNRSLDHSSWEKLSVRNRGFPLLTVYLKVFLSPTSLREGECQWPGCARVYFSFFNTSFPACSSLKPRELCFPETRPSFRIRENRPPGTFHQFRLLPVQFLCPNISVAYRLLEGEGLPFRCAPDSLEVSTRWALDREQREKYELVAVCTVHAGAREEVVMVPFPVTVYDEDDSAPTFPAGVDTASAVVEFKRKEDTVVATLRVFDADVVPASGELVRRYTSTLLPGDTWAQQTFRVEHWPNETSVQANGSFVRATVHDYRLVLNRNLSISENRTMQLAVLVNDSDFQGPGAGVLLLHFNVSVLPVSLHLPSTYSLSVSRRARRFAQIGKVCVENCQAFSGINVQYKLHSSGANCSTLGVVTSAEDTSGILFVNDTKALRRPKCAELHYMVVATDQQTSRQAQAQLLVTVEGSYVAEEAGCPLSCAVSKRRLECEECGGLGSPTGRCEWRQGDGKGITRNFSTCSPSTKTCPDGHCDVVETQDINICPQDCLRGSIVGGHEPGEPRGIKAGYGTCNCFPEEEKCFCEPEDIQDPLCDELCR

Molecule: RET ECD (from UniProt P07949)
Kd [1]: 3.2 µM

stoichiometry N [2]: 2 | Kd [3]: 8.5 µM
Molecule: RET^C634R extracellular domain dimer (human RET residues 1-635 with C634R, C86R and C216S) (from UniProt P07949 29-635) (domain or fragment)

binding result [4]: binds
B1: GDF15/GFRAL complex with the Fc removed by thrombin (formed beforehand) (complex, human)
chain 1: ARARNGDHCPLGPGRCCRLHTVRASLEDLGWADWVLSPREVQVTMCIGACPSQFRAANMHAQIKTSLHRLKPDTVPAPCCVPASYNPMVLIQKTDTGVSLQTYDDLLAKDCHCI
chain 2: SQTNNCTYLREQCLRDANGCKHAWRVMEDACNDSDPGDPCKMRNSSYCNLSIQYLVESNFQFKECLCTDDFYCTVNKLLGKKCINKSDNVKEDKFKWNLTTRSHHGFKGMWSCLEVAEACVGDVVCNAQLASYLKACSANGNPCDLKQCQAAIRFFYQNIPFNIAQMLAFCDCAQSDIPCQQSKEALHSKTCAVNMVPPPTCLSVIRSCQNDELCRRHYRTFQSKCWQRVTRKCHEDENCISTLSKQDLTCSGSDDCKAAYIDILGTVLQVQCTCRTITQSEESLCKIFQHMLHRKSCFNYPTLSNVKGMALYTRKHANKITLTGFHSPFNGE
notes: human GDF15, residues 195-308; human GFRAL, residues 19-351; as m4; not shown: modified Fc, N-terminal, cleaved; copies: 2 + 2

Reference: paper PMC9490035, “Unexpected structures formed by the kinase RET C634R mutant extracellular domain suggest potential oncogenic mechanisms in MEN2A” (The Journal of Biological Chemistry, 2022)
